Data taken from article PMC5206748.

Tests used:
[1] = biological target: human P-cadherin expressed on CHO cells (human) (UniProt P22223)
[2] = biological target: TSP7 S77R (scFv) (mouse); experiment: SPR; scFv (100 nM) captured on anti-His6-tag antibody on a CM5 chip; analyte 1.25-20 nM strand-swap dimer or 6.25-100 nM monomer construct; global fitting
TSP7 S77R (scFv) (mouse), sequence (heavy, as listed by the source): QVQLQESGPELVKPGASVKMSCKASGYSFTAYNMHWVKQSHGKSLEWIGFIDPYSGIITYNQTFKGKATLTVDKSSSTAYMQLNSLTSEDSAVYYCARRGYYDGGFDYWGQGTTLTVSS

human P-cadherin expressed on CHO cells, sequence (P22223 108-829): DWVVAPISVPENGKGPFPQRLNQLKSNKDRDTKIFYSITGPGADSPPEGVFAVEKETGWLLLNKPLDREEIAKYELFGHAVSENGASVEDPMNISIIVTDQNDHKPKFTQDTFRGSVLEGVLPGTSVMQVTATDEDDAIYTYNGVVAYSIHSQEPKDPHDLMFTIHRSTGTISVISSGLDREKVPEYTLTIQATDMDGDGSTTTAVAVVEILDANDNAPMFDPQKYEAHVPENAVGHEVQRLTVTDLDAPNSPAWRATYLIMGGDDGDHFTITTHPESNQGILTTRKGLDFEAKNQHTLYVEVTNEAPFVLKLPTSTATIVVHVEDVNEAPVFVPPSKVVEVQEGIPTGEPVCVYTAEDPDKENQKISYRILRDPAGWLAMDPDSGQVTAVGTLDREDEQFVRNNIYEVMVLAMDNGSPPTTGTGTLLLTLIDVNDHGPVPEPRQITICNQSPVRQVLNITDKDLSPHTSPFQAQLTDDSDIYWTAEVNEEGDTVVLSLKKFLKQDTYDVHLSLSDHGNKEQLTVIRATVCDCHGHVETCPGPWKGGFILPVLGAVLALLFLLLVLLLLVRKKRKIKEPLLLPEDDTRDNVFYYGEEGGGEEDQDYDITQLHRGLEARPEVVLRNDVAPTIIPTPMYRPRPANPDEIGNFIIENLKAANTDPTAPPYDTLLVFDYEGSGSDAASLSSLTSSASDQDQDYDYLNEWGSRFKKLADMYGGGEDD

loss of dense fluorescent puncta of P-cadherin WT-mGFP at cell-cell boundaries of CHO cells after 100 nM TSP7 (0-120 min) [1]	fold change of affinity against TSP7 WT [2]	Substance
90%		human P-cadherin expressed on CHO cells (from UniProt P22223 108-829) (natural protein)
	2 fold lower	human P-cadherin EC12 K14E (domain or fragment)
